Our source for the IC50 values is patent US20040258659A1.

The target in the assay is CCR5, P51681. In words: competitive radioligand binding on whole CHO-CCR5 cells at 4 C, 12 pM [125I]MIP-1α tracer. Particulars: remark: other sources report otherwise.
Sequence of CCR5, P51681 (P51681 whole entry): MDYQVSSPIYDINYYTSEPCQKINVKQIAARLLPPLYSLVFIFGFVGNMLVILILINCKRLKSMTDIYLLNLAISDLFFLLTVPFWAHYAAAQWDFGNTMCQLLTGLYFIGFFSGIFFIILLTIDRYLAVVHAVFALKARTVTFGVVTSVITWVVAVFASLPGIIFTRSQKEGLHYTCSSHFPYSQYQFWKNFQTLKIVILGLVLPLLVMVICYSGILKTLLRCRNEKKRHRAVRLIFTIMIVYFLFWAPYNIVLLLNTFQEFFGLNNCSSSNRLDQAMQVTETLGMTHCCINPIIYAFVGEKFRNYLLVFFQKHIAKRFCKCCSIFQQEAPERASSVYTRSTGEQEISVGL

B1: RANTES, P13501 24-91 (ligand, human, UniProt P13501 24-91, looked up)
chain: SPYSSDTTPCCFAYIARPLPRAHIKEYFYTSGKCSNPAVVFVTRKNRQVCANPEKKWVREYINSLEMS
Turning to B1, the IC50 (in general, the concentration that inhibits the measured activity by half) was 1.7 nM.
